The source of these data is US20180162947A1 (UCB, published 2018).

Assay [1] has as its target T1, mouse CSF-1R (form not stated) (mouse, UniProt P09581 20-511, limits assumed).
T1 construct: also called murine CSF-1R
T1 sequence (looked up): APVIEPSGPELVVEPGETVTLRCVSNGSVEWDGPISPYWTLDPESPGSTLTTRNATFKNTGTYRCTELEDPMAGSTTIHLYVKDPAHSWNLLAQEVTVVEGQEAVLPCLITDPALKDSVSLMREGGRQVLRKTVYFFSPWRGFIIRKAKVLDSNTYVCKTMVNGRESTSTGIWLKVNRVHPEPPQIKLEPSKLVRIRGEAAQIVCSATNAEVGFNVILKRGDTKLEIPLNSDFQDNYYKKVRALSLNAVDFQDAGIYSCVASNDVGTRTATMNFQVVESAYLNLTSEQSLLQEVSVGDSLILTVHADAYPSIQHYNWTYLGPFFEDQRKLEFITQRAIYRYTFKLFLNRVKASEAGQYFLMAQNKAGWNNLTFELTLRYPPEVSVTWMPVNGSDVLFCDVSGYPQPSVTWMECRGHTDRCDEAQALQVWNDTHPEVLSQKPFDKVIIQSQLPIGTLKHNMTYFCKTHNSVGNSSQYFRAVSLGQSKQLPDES
Nature of the assay: not described.

For assay [2], the target named is T2, human CSF-1R on cells (THP-1 cells, transfected HEK293F cells, primary human monocytes) (human, UniProt P07333 20-972). Nature of the assay: cell-based or functional assay.
In assay [3] the target is T2, human CSF-1R on cells (THP-1 cells, …). Nature of the assay: cell-based or functional assay. The source holds these as a separate data set.
Assay [4] shares this target. Nature of the assay: cell-based or functional assay. This is another data set of the same source.
Assay [5] addresses T3, recombinant human CSF-1R (form not stated) (human, UniProt P07333 20-512, limits assumed).
T3 construct: for the ELISA no species is stated; also called recombinant CSF-1R; recombinant CSF-1R protein
Nature of the assay: BIAcore, experiment 1 of 3. Here is the method: (§1) The assay format was capture of the anti-CSF-1R antibodies by immobilised anti-human IgG,F(ab′)₂, then a titration of hCSF-1R/Fc over the captured surface. BIA (Biomolecular Interaction Analysis) was performed using a BIAcore 3000 (GE Healthcare Bio-Sciences AB). All experiments were performed at 25° C. An AffiniPure F(ab′)₂ fragment goat anti-human IgG, F(ab′)₂ fragment specific (Jackson ImmunoResearch), was immobilised on a CM5 Sensor Chip (GE Healthcare Bio-Sciences AB) via amine coupling chemistry to a level of ˜5000 response units (RU). HBS-EP buffer (10 mM HEPES, pH 7.4, 0.15M NaCl, 3 mM EDTA, 0.005% Surfactant P20, GE Healthcare Bio-Sciences AB) was used as the running buffer with a flow rate of 10 μl/min.
On the technique in general: SPR reads the build-up and loss of mass on a sensor chip optically.

In assay [6] the target is T3, recombinant human CSF-1R (form not …). Description: BIAcore, experiment 2 of 3. Here is the method:
as §1

Assay [7] shares this target. Nature of the assay: BIAcore, experiment 3 of 3. Here is the method: as §1
The target is the same in assay [8]. Nature of the assay: BIAcore, purified antibody, mean.
The target is the same in assay [9]. Nature of the assay: BIAcore, recombinant CSF-1R protein.
For assay [10] the target is unchanged. Description: BIAcore, purified antibody, experiment 1.
Assay [11] shares this target. Nature of the assay: BIAcore, purified antibody, experiment 2.
Assay [12] concerns the target T2, human CSF-1R on cells (THP-1 cells, …). Description: inhibition of CSF-1 binding to THP-1 cells.
The target of assay [13] is T3, recombinant human CSF-1R (form not …). Description: BIAcore, mean of 3 (fourth row, unlabelled). Here is the method:
as §1

The target is the same in assay [14]. Nature of the assay: BIAcore, DG/SG comparison, crude cell supernatant.
Assay [15] shares this target. Nature of the assay: BIAcore, humanisation stage, crude cell supernatant.
The target in assay [16] is T2, human CSF-1R on cells (THP-1 cells, …). Description: quantitative flow cytometry on THP-1 cells, Alexa-488-labelled antibody. Background: A flow cytometer gives signals particle by particle.
The target in assay [17] is T4, recombinant human CSF-1R/Fc fusion protein (R&D Systems) (human, UniProt P07333 20-517).
T4 construct: extracellular domain; Bought from R&D Systems; also called hCSF-1R/Fc; not shown: Fc part of the bought fusion protein, not described
Description: BIAcore 3000, antibody captured by anti-human IgG F(ab')2, hCSF-1R/Fc in solution, 25 C. Here is the method: Antibodies were tested for their ability to bind CSF-1R in a BIAcore assay by measurement of binding kinetics to a purified recombinant CSF-1R/Fc fusion protein.
as §1
Recombinant human CSF-1R/Fc (R&D Systems) was passed over the captured anti-CSF-1R antibody at 5 nM at a flow rate of 30 ul/min for 5 min, then the flow rate was increased to 100 ul/min for 30 min for the dissociation phase. The injection at 5 nM was performed twice along with a corresponding buffer control. These sensorgrams were used to generate the dissociation rate. […] These sensorgrams were used to generate the association rate. The surface was regenerated at a flow rate of 10 ul/min by a 10 ul injection of 40 mM HCl followed by a 5 ul injection of 10 mM NaOH. Double referenced background subtracted binding curves were analysed using the BIAevaluation software (version 4.1) following standard procedures. Kinetic parameters were determined from the fitting algorithm.

In assay [18] the target is T3, recombinant human CSF-1R (form not …). Nature of the assay: ELISA ligand-blocking assay, antibody pre-mixed with 1 ng/ml CSF-1 (competitor), plate-bound CSF-1R. An excerpt:
(§2) This method is from here on referred to as the ‘ELISA ligand-blocking assay’.
In general terms: An ELISA detects its analyte on a solid surface through an enzyme-linked reagent.

The target is the same in assay [19]. Nature of the assay: ELISA ligand-blocking assay, antibody pre-mixed with 10 ng/ml CSF-1 (competitor), plate-bound CSF-1R.
Source text: as §2

For assay [20] the target is unchanged. Description: ELISA ligand-blocking assay, antibody pre-mixed with 100 ng/ml CSF-1 (competitor), plate-bound CSF-1R.
Source text: as §2

“And” between values parts separate entries of the source, which are not always exact repeats. Equal entries are not always repeated.

T4 sequence (P07333 20-517): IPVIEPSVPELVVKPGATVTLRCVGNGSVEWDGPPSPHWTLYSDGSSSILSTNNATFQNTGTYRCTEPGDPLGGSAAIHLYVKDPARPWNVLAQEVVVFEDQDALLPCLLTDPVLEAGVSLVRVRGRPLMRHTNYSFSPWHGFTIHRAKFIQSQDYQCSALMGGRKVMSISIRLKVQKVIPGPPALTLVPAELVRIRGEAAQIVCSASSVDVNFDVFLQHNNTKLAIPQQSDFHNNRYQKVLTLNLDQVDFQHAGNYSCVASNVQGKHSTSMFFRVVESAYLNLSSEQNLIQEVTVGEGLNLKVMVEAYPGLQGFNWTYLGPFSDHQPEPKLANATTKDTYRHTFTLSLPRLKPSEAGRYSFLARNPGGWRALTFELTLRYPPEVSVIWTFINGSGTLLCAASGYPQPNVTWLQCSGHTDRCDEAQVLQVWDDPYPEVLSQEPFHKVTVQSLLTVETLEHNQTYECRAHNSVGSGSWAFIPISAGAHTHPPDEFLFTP
T2 sequence (P07333 20-972): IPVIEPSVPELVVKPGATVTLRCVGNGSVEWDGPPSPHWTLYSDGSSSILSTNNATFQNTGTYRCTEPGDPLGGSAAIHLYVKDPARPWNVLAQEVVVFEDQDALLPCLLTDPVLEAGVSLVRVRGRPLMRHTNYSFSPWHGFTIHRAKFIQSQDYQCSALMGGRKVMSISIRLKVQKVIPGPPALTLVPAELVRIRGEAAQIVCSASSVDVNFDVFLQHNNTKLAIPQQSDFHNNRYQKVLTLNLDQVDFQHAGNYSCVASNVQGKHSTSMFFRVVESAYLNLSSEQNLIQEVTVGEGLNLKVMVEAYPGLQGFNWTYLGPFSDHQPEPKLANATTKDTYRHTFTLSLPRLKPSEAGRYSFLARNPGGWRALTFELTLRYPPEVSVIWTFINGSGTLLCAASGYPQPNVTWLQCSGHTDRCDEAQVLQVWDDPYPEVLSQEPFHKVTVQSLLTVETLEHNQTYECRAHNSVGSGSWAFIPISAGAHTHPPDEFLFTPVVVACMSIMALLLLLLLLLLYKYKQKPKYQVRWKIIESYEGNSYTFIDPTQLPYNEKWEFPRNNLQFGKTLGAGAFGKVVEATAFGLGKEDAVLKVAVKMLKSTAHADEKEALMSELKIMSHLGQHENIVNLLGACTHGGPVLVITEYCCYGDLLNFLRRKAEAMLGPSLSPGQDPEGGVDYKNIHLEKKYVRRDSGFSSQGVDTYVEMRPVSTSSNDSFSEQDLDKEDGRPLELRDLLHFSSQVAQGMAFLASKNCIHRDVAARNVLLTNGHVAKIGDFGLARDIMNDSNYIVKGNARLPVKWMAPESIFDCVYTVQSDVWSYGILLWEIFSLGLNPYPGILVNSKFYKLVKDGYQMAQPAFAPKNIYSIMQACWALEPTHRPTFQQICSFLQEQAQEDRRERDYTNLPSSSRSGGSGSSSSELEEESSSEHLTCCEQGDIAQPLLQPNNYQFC
T3 sequence (P07333 20-512 limits assumed): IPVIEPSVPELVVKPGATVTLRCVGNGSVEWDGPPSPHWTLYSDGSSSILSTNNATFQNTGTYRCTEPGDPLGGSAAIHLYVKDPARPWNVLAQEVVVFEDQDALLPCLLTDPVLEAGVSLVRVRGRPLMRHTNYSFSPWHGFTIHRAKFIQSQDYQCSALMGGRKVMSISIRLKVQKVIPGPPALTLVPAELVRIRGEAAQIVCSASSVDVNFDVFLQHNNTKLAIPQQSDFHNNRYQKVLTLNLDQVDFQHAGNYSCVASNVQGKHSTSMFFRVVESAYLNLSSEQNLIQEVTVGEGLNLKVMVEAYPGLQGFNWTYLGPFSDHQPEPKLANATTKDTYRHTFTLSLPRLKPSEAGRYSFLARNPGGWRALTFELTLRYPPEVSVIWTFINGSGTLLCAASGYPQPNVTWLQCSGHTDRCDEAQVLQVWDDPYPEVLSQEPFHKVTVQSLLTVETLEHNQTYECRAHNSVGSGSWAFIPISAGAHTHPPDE

B1: Ab969.g2 (969gH2gL7) (antibody, human IgG4 S228P, kappa, V domains shown)
VH: EVTLKESGPALVKPTQTLTLTCTFSGFSLTTYGMGVGWIRQPPGKALEWLANIWWDDDKYYNPSLKNRLTISKDTSKNQVVLTMTNMDPVDTATYYCARIGPIKYPTAPYRYFDFWGQGTMVTVSS
VL: DIQMTQSPSSLSASVGDRVTITCLASEDIYDNLAWYQQKPGKAPKLLIYYASSLQDGVPSRFSGSGSGTDYTLTISSLQPEDFATYYCLQDSEYPWTFGGGTKVEIKR
notes: Full-length humanised IgG4 (S241P), human kappa (Km3 allotype); also called 969gH2gL7 DG; Ab969.2
For the molecule B1, in assay [1], the binding result is recorded as “no binding”.

B2: chimeric antibody 969 (rat variable regions, human gamma-4 heavy chain constant region and human kappa chain constant region) (antibody, human IgG4, V domains shown)
VH: QVTLKESGPGILQPSQTLSLTCTFSGFSLTTYGMGVGWIRQPSGKGLEWLANIWWDDDKYYNPSLKNRLTISKDTSNNQAFLKLTNVHTSDSATYYCARIGPIKYPTAPYRYFDFWGPGTMVTVSS
VL: DIQMTQSPASLSASLGETVSIECLASEDIYDNLAWYQKKPGKSPHLLIYYASSLQDGVPSRFSGSGSGTQYSLKINSLESEDAATYFCLQDSEYPWTFGGGTKLELKR
modifications: Alexa-488 label in the cell-based affinity assay; not carried by the letters.
notes: Full-length human IgG4 (S241P)/kappa chimeric; also called Ab969
A word on the Kd: it is a measure of binding affinity in units of concentration. In general, koff refers to a measure of how fast the partners let go of each other. A word on the kon: it is the second-order rate constant of association. A word on the IC50: it is the concentration that gives 50% inhibition. With B2, the “mean IC50, MCP-1 inhibition assay, primary human monocytes, 100 ng/ml CSF-1” value in assay [2] worked out at 0.0246 mg/L. Also, in [3], the “IC50, MCP-1 inhibition assay, Donor 1” value was found to be 0.031 mg/L. The “IC50, MCP-1 inhibition assay, Donor 2” value in assay [3] came to 0.0057 mg/L. Moreover, the “IC50, MCP-1 inhibition assay, Donor 3” value in assay [3] worked out at 0.0594 mg/L. Also, the “IC50, MCP-1 inhibition assay, Donor 4” value in [3] came to 0.0417 mg/L. Further, in [3], the “IC50, MCP-1 inhibition assay, Donor 5” value is 0.0209 mg/L. Besides, in assay [3], the “IC50, MCP-1 inhibition assay, Donor 6” value worked out at 0.007 mg/L. The “IC50, IL-34-dependent human monocyte assay (MCP-1 by ELISA), 100 ng/ml IL-34, Donor 1” value in assay [4] came to 0.0201 mg/L. In addition, the “IC50, IL-34-dependent human monocyte assay (MCP-1 by ELISA), 100 ng/ml IL-34, Donor 2” value in assay [4] was found to be 0.00979 mg/L. Also, the Kd in [5] worked out at 3.6 pM; in assay [6], 3.9 pM; in assay [7], 3.6 pM; in [8], 4.3 pM; in assay [9], 4.8 pM; in assay [10], 4.4 pM. Also, the Kd in assay [11] was 4.2 pM; in [13] it was 3.7 pM; in assay [14], 2 pM; in assay [15], 3.5 pM; in [16], 2200 pM; in [17] it was 9.65 pM and 9.6 pM. Besides, the koff in assay [5] was determined as 1.03e-05 s⁻¹; in assay [6], 1.1e-05 s⁻¹; in [7], 9.51e-06 s⁻¹; in [8] it was 9.3e-06 s⁻¹; in [10], 9.49e-06 s⁻¹; in assay [11], 9.1e-06 s⁻¹. Also, the koff was determined as 1.03e-05 s⁻¹ in [13], 8.53e-06 s⁻¹ in assay [14], 7.99e-06 s⁻¹ in [15] and 2.49e-05 s⁻¹ in [17]. The kon in assay [5] was 2.83e+06 M⁻¹ s⁻¹; in assay [6], 2.79e+06 M⁻¹ s⁻¹; in assay [7] it was 2.68e+06 M⁻¹ s⁻¹; in [8] it was 2.16e+06 M⁻¹ s⁻¹; in assay [10], 2.16e+06 M⁻¹ s⁻¹; in assay [11] it was 2.16e+06 M⁻¹ s⁻¹. Also, the on-rate constant (kon) turned out to be 2.77e+06 M⁻¹ s⁻¹ in [13], 4.35e+06 M⁻¹ s⁻¹ in [14], 2.31e+06 M⁻¹ s⁻¹ in [15] and 2.58e+06 M⁻¹ s⁻¹ in assay [17]. Moreover, the IC50 in [12] worked out at 0.00289 mg/L; in assay [18], 0.0128 mg/L; in assay [19] it was 0.0793 mg/L; in assay [20], 0.829 mg/L.
